14 variants from the supplement of paper PMC11811203 can be followed below.

B1: THAP1; numbered along this chain (parent)
chain: MVQSCSAYGCKNRYDKDKPVSFHKFPLTRPSLCKEWEAAVRRKNFKPTKYSSICSEHFTPDCFKRECNNKLLKENAVPTIFLCTEPHDKKEDLLEPQEQLPPPPLPPPVSQVDAAIGLLMPPLQTPVNLSVFCDHNYTVEDTMHQRKRIHQLEQQVEKLRKKLKTAQQRCRRQERQLEKLKEVVHFQKEKDDVSERGYVILPNDYFEIVEVPA

The data set covers variants of B1. As to the kind of experiment: THAP1 transcriptional activity (GFP+/GFP- enrichment relative to wild-type constructs) (ratio to WT); higher = more THAP1 activity (PSMB5 reporter activation). The note with it: with PSMB5 promoter-GFP reporter. In short, it runs like this: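 Variants were counted by Illumina sequencing of genomic DNA amplicons from BFP+ cells sorted into GFP-bright and GFP-dim bins five days after lentiviral transduction, in duplicate at MOI ~0.3. The library changed each of residues 2–213 of human THAP1 to all 20 amino acids and was introduced into THAP1-knockout HEK-293T cells with mClover3 knocked in at endogenous PSMB5. Activity equals the replicate-mean bright/dim read fold change over the mean of wild-type synonymous constructs.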
On to MVQSCSAYGCKNRYDKDKPVSFHKFPLTRPSLCKEWEAAVRRKNFKPTKYSSICSEHFTPDCFKRECNNKLLKENAVPTIFLCTEPHDKKEDLLEPQEQLPPPPLPPPVSQVTAAIGLLMPPLQTPVNLSVFCDHNYTVEDTMHQRKRIHQLEQQVEKLRKKLKTAQQRCRRQERQLEKLKEVVHFQKEKDDVSERGYVILPNDYFEIVEVPA [D113T], for which the THAP1 transcriptional activity was found to be 0.375. As for MVQSCSAYGCKNRYDKDKPVSFHKFPLTRPSLCKEWEAAVRRKNFKPTKYSSICSEHFTPDCFKRECNNKLLKENAVPTIFLCTEPHDKKEDLLEPQTQLPPPPLPPPVSQVDAAIGLLMPPLQTPVNLSVFCDHNYTVEDTMHQRKRIHQLEQQVEKLRKKLKTAQQRCRRQERQLEKLKEVVHFQKEKDDVSERGYVILPNDYFEIVEVPA [E98T], the THAP1 transcriptional activity came to 1.66. As to MVQSCSAYGCKNRYDKDKPVSFHKFPLTRPSLCKEWEAAVRRKNFKPTKYSSICSEHFTPDCFKRECNNKLLKENAVPTIFLCTEPHDKKEDLLEPQEQLPPPPLPPPVSQVDAAIGLLMPPLQTPVNLSVFCDHNYTVEDTMHQRKRIHQLEQQVEKLRKKLKTAQQRCRRQERQLEKLKEVVHFQKEQDDVSERGYVILPNDYFEIVEVPA [K190Q], the THAP1 transcriptional activity was 0.807. As for MVQSCSAYGCKNRYDKDKPVSFHKFPLTRPSLCKEWEAAVRRKNFKPTKYSSICSEHFTPDCFKRECNNKLLKENAVPTIFLCTEPHDKKEDLLEPQEQLPPPPLPPPVSQVDAAIGLLMPPLQTPVNLSVFCDHNYTVEDTMHQRKRIHQLEQQVEKLRKKLKTAQQRCRRQERQLEKLKEVVHFQKEVDDVSERGYVILPNDYFEIVEVPA [K190V], the figure is 1.21; as for MVQSCSAYGCKNRYDKDKPVSFHKFPLTRPSLCKEWEAAVRRKNFKPTKYSSICSEHFTPDCFKRECNNKLLKENAVPTIFLCTEPHDKKEDLLEPQEQLPPPPLPPPVSQVDAAIGLLMPPLQTPVNLSVFCDHNYTVEDTMHQRKRIHQLEQQVEKLRKKLKTAQQRCRRQERQLEKLKEVVHFQKEKDDVSERGYVILPTDYFEIVEVPA [N203T], 1.15; as for MVQSCSAYGCKNRYDKDKPVSFHKFPLTRPSLCKEWEAAVRRKNFKPTKYSSICSEHFTPDCFKRECNNKLLKENAVPTIFLCTEPHDKKEDLLEPQEQLPPPPLPPPVSQVDAAIGLLMPPLCTPVNLSVFCDHNYTVEDTMHQRKRIHQLEQQVEKLRKKLKTAQQRCRRQERQLEKLKEVVHFQKEKDDVSERGYVILPNDYFEIVEVPA [Q124C], 0.587. For the variant MVQSCSAYGCKNRYDKDKPVSFHKFPLTRPSLCKEWEAAVRRKNFKPTKYSSICSEHFTPDCFKRECNNKLLKENAVPTIFLCTEPHDKKEDLLEPQEQLPPPPLPPPVSQVDAAIGLLMPPLQTPVNLSVFCDHNYTVEDTMHQRKVIHQLEQQVEKLRKKLKTAQQRCRRQERQLEKLKEVVHFQKEKDDVSERGYVILPNDYFEIVEVPA [R148V], the THAP1 transcriptional activity came to 0.412.

Regarding MVQSCSAYGCKNRYDRDKPVSFHKFPLTRPSLCKEWEAAVRRKNFKPTKYSSICSEHFTPDCFKRECNNKLLKENAVPTIFLCTEPHDKKEDLLEPQEQLPPPPLPPPVSQVDAAIGLLMPPLQTPVNLSVFCDHNYTVEDTMHQRKRIHQLEQQVEKLRKKLKTAQQRCRRQERQLEKLKEVVHFQKEKDDVSERGYVILPNDYFEIVEVPA [K16R], the THAP1 transcriptional activity is 0.661. Take MVQSCSAYGCKNRYDKDKPVSFHKFPLTRPSLCKEWEAAVRRKNFKPTKYSSICSEHFTPDCFKRECNNKLLKENAVPTIFLCTEPHDKKEDLLEPQEQLPPPPLPPPVSQVDAAIGLLMPPLQTPVNLSVFCDHNYTVSDTMHQRKRIHQLEQQVEKLRKKLKTAQQRCRRQERQLEKLKEVVHFQKEKDDVSERGYVILPNDYFEIVEVPA [E140S]: the THAP1 transcriptional activity was 1.48. Next, MVGSCSAYGCKNRYDKDKPVSFHKFPLTRPSLCKEWEAAVRRKNFKPTKYSSICSEHFTPDCFKRECNNKLLKENAVPTIFLCTEPHDKKEDLLEPQEQLPPPPLPPPVSQVDAAIGLLMPPLQTPVNLSVFCDHNYTVEDTMHQRKRIHQLEQQVEKLRKKLKTAQQRCRRQERQLEKLKEVVHFQKEKDDVSERGYVILPNDYFEIVEVPA [Q3G]: 0.159; MVQSCSAYGCKNRYDKDKPVSFHKFPLTRPSLCKEWEAAVRRKNIKPTKYSSICSEHFTPDCFKRECNNKLLKENAVPTIFLCTEPHDKKEDLLEPQEQLPPPPLPPPVSQVDAAIGLLMPPLQTPVNLSVFCDHNYTVEDTMHQRKRIHQLEQQVEKLRKKLKTAQQRCRRQERQLEKLKEVVHFQKEKDDVSERGYVILPNDYFEIVEVPA [F45I]: 0.0544; MVQSCSAYGCKNRYDKDKPVSFHKFPLTRPSLCKEWEAAVRRKNFKPTKYSSICSEHFTPDCFKRECNNKLLKENAVPTIFLCTEPHDKKEDLLEPQEQLPPPPLPPPVSQVDAAIGLLMPPLQTPVNLSVFCDHNYTVEDTMHQRKRIHQLEQQVEKLRKKLKTAQQRCRRQERQLEKLKEVVHFQKEKDDVSERGYHILPNDYFEIVEVPA [V199H]: 0.609.

Regarding MVQSCSAYGCKNRYDKDKPVSFHKFPLTRPSLCKEWEAAVRRKNFKPTKYSSICSEHFTPDCFKRECNNKLLKENAVPTIFLCTEPHDKKEDLLEPQEQLPPPPLPPPVSQVDAAIGLLMPPLQTPVNLSVFCDHNYTVEDTMHQRKRIHQLEQQVEKLRKKLKTAQQRCRRQERQLEKLKEEVHFQKEKDDVSERGYVILPNDYFEIVEVPA [V183E], the THAP1 transcriptional activity is 0.876. Consider MVQSCSAYGCKNRYDKDKPVSFHKFPLTRPSLCKEWEAAVRRKNFKPTKYSSICSEHFTPFCFKRECNNKLLKENAVPTIFLCTEPHDKKEDLLEPQEQLPPPPLPPPVSQVDAAIGLLMPPLQTPVNLSVFCDHNYTVEDTMHQRKRIHQLEQQVEKLRKKLKTAQQRCRRQERQLEKLKEVVHFQKEKDDVSERGYVILPNDYFEIVEVPA [D61F], for which the THAP1 transcriptional activity came out at 0.173.
